Source: US7001748

Legend:
[1] = target: M2(4) (derivative of M2 containing the C-terminal linker of DEBS module 4; plasmid pST179) (UniProt Q03133); assay: fit of the rate of tetraketide formation against (5)M3+TE concentration (0.5-5 µM) at fixed 0.5 µM M2(4); kinetic saturation curve
[2] = target: M2 (module 2 of DEBS with the natural C-terminal linker for module 2; plasmid pBP19) (UniProt Q03133); assay: fit of the rate of tetraketide formation against M3+TE concentration (0.4-4 µM) at fixed 1.0 µM M2; kinetic saturation curve
[3] = target: (5)M5+TE (M5+TE; plasmid pRSG46) (UniProt Q03133); assay: cell-based or functional assay

Substance “(5)M3+TE (derivative of M3+TE where the natural N-terminal linker has been replaced with the N-terminal linker of module 5 of DEBS; plasmid pST132) (from UniProt Q03133 2-41; Q03132 33-1467; Q03133 2960-3166) (enzyme)” has a Kd [1] of 2100 nM.

With “M3+TE (module 3 of DEBS with its own N-terminal linker and with the thioesterase fused to the C-terminus; plasmid pRSG34) (from UniProt Q03132 33-1467; Q03133 2960-3166) (enzyme)” the Kd [2] was 1100 nM.

In the case of “acyl-ACP4(4) adduct 4a ((2S,3R)-diketide on ACP4(4)) (from UniProt Q03132 3398-3567)”, the maximal rate increase in the elongation of 4a versus 2a [3] is reported as greater than 40 fold.
